From patent US20200101109A1 (LENTIGEN TECHNOLOGY, published 2020)

B1: m1033-4 (VH-4) human anti-CD33 VH domain binder, soluble (VHH)
VHH: EVQLVESGGGLVQPGGSLRLSCAASGFTFSSYGMSWVRQAPRQGLEWVANIKQDGSEKYYADSVKGRFTISRDNSKNTLYLQMNSLRAEDTATYYCAKENVDWGQGTLVTVSS
notes: Human heavy chain variable domain only (not camelid), from a phage library, expressed in E. coli HB2151 and purified on Ni-NTA; also called CD33_4; CD33 VH-4; not shown: His and Flag tags
B2: m1033-9 (ScFv9) human anti-CD33 ScFv binder, soluble (scFv)
scFv: QVQLVQSGAEVKKPGESLRISCKGSGFSFPTYWIGWVRQMPGKGLEWMGIIYPGDSDTRYSPSFQGQVTISADKSISTAYLQWSSLKASDTAMYYCARLVGDGYNTGAFDIWGQGTMVTVSSGGGGSGGGGSGGGGSDIVMTHTPLSLSVTPGQPASISCKSSQSLLHSNGKTYLYWYLQKPGQPPQLLIYGASNRFSGVPDRFSGSGSGTDFTLKISRVEAEDVGVYYCMQSIQLPITFGQGTRLEIK
notes: also called CD33 ScFv 9; not shown: His and Flag tags
B3: m1033-12 (ScFv12) human anti-CD33 ScFv binder, soluble (scFv)
scFv: QVQLQQSGPGLVKPSQTLSLTCAISGDSVSSNSAAWNWIRQSPSRGLEWLGGTYYRSKWYNDYAVSVKSRIIINADTSKNQFSLQLNSVTPEDTAVYYCARGYYYDSTDWFDPWGQGTLVTVSSGGGGSGGGGSGGGGSSSELTQDPTVSVALGQTVRITCQGDSLRSYYASWYQQKPGQAPVLVIYGKNNRPSGIPDRFSGSSSGNTASLTITGAQAEDEADYYCSSRDGSGHPYLFGPGTKVTVL
notes: also called CD33 ScFv 12; not shown: His and Flag tags
B4: m1033-2 (VH-2) human anti-CD33 VH domain binder, soluble (VHH)
VHH: EVQLVESGGGLVQPGGSLRLSCAASGFTFSSYGMSWVRQAPRKGLEWIGEINHSGSTNYNPSLKSRVTISRDNSKNTLYLQMNSLRAEDTATYYCARPLNYYYYYMDVWGKGTTVTVSS
notes: Human heavy chain variable domain only (not camelid), from a phage library, expressed in E. coli HB2151 and purified on Ni-NTA; also called CD33 VH-2; not shown: His and Flag tags
B5: m1033-15 (ScFv15) human anti-CD33 ScFv binder, soluble (scFv)
scFv: EVQLVQSGAEVKKPGESLKISCKGSGYSFTSYWIGWVRQMPGKGLEWMGIIYPGDSDTRYSPSFQGQVTISADKSISTAYLQWSSLKASDTAMYYCARLTTAGGMDVWGQGTTVTVSSGGGGSGGGGSGGGGSEIVLTQSPLSLPVTLGQPASISCRSSQSLVHSDGNTYLSWLHQRPGQPPRLLMYKISNRFSGVTDRFSGSGSGTDFTLKISRVEAEDVGVYYCMQGIHLPLTFGGGTKLEIK
notes: also called CD33 ScFv 15; not shown: His and Flag tags
B6: m1033-10 (ScFv10) human anti-CD33 ScFv binder, soluble (scFv)
scFv: QVQLQQSGPGLVKPSQTLSLTCAISGDSVSSNTAAWNWIRQSPSRGLEWLGRTYYRSKWYNDYAVPVKSRITINPDTSKNQFSLQLNSVTPEDTAVYYCARETYYYGSGSYWDAFDIWGQGTTVTVSSGGGGSGSGGSGGGGSQSVVTQPPSVSAAPGQKVTISCSGSSSNIGNNYVSWYQQLPGTAPKLFIYKNNQRPSEVPDRFSGSKSGTSASLAISGLQSDDEADYYCAAWDDRLNGYVFGTGTKVTVL
notes: also called CD33 ScFv 10; not shown: His and Flag tags

Experiments:
recombinant human CD33 [1] = biological target: T1, recombinant human CD33 (human, UniProt P20138 18-259, limits assumed); assay: ELISA, coated recombinant human CD33, purified His/Flag-tagged VH, anti-Flag-HRP
T1 construct: also called coated CD33
T1 sequence (P20138 18-259 limits assumed): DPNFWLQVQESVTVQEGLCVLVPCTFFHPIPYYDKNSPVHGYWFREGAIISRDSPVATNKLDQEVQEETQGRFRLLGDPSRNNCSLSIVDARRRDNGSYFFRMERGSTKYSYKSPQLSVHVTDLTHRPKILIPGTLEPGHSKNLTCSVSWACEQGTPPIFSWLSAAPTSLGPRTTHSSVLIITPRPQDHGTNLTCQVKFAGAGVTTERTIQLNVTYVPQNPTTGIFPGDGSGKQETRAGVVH
Description: (§1) 50 μl of the diluted recombinant human CD33 in PBS at 2 ug/ml was coated in a 96-well plate at 4° C. overnight. Purified ScFv or VHs (from above) with His and Flag tags were serially diluted and added into the target protein coated wells. After washing, a 1:3000 diluted HRP conjugated anti-Flag antibody was added for 1 hr at RT. After washing, 3, 3, 5, 5′-Tetramethylbenzidine (TMB) substrate was added, 1N H₂SO₄ was added to stop the reaction after incubation at room temperature for 10 minutes, and the O.D. was read at 450 nm to quantify the relative ability of ScFv to bind CD33.

recombinant human CD33 [2] = biological target: T1, recombinant human CD33; assay: ELISA, coated recombinant human CD33, purified His/Flag-tagged ScFv, anti-Flag-HRP
Description: as §1

Row | Binder | binding result (recombinant human CD33 [1]) | binding result (recombinant human CD33 [2])
1 | B1 | binds | –
2 | B2 | – | binds
3 | B3 | – | binds
4 | B4 | binds | –
5 | B5 | – | binds
6 | B6 | – | binds
